Assay results published in the supplement of paper PMC9170038.

System: MS2 coat protein
Assay: apparent KD of MS2 coat protein; designed switch direction (-1 OFF switch, 1 ON switch): -1; higher = weaker reporter binding
Summary of the method: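 For each design, the apparent KD is the median over clusters of curves fitted to normalised cluster fluorescence. Clusters held RNA switches with common flanks, transcribed on Illumina chips by stalled E. coli RNA polymerase. These were titrated with SNAP-549-labelled MS2 coat protein, doubling from 0.7 or 1.5 nM to 3 µM, without input, with 200 uM small-molecule ligand, or with an oligonucleotide input.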

[1] = Eterna round: R95, input ligand: FMN 200 uM
[2] = Eterna round: R95, input ligand: microRNA oligo, concentration not stated
[3] = Eterna round: R95, input ligand: none
[4] = input ligand: microRNA oligo, concentration not stated

| Sequence | apparent KD of MS2 coat protein [2] [µM] | apparent KD of MS2 coat protein (input ligand: FMN 200 uM) [µM] | apparent KD of MS2 coat protein (input ligand: none) [µM] | other results |
| --- | --- | --- | --- | --- |
| AAAUGCAAGUAAAGAUCUUACAUGAGGAUCACCCAUGUGCUCGUCUUAUAAAGUACUAUCACGAAAGUGAUAGUACA [Sensor 3, v1 - 27] (puzzle: Sensor v3, turn-off variant 1) | 0.0769 |  |  | apparent KD of MS2 coat protein [1]: 0.0185 µM; apparent KD of MS2 coat protein [3]: 0.0193 µM |
| ACUCGACAUGAGGAUCACCCAUGUGAGGAUAUGGCCUGUUUGGCGUGAGCUGGCUCUGUCAGAAGGCGCGUGGG [salish99_ex1_r4_045] (Eterna round: R97, puzzle: Exclusion 1) |  | 0.138 | 0.0755 |  |
| AGAUCGUCAGGAUAUACAUGAGGAUCACCCAUGUGUAGUCCAAAUUUGACUACAACAUGUAGAAGGGACGAUCG [Exclusion 3 (MOD2 of #1 Marzena11)] (Eterna round: R97, puzzle: Exclusion 3) |  | 0.209 | 0.044 |  |
| ACAGAGUCAGGAUAUCGCCGUGGCAGUCUCAACCAGCGGAACGAGAAGGGACAUGAGGAUCACCCAUGUCUGUU [Eternabot (Original) Solution 36] (Eterna round: R97, puzzle: Exclusion 4) |  | 0.0207 | 0.0186 |  |
| GGCAGCUCAGGAUAUAGUUAAAACGACAUGAGGAUCACCCAUGUGACUGAUAUGCGGCGCCUAGAAGGGAGGUGCC [Xeusisso] (puzzle: Exclusion 5) | 0.0146 |  |  |  |
| CGAGCUGCUGUGAGGAUAUACCUGUGGGUGCGUGGGUAGAAGGCACAUGAGGAUCACCCAUGUCCUGCAGCUCG [salish99_bmx4_r4_105] (Eterna round: R97, puzzle: Brourd's mod of Exclusion 4) |  | 0.595 | 1.06 |  |
| UUUUUAUAUGAAGGAUAUACUUAACAUGAGGAUCACCCAUGUGGUGUUGUGAGUGAGUGAGUUUAGUAGAAGGUCAAGUAUUUU [JMF's solution 8] (Eterna round: R96, puzzle: Exclusion NG 2) |  | 0.431 | 0.431 | apparent KD of MS2 coat protein [4]: 0.265 µM |
| UUUUACAUAGGAUAUAGUUUGUUGUACAUGAGGAUCACCCAUGUUUUUGGUUGUGCUUUUCUAGAAGGAUGUUUCU [JR_E5_Sub015] (puzzle: Exclusion 5) | 0.0438 |  |  |  |
| CUGUACUGAGGAUAUACAUGAGGAUCACCCAUGUGAUGUAGUGCACGCGUACGUGUACGUAGAAGGCAGUACAG [Mat - Exclusion 3 - Eli Mod - D41] (Eterna round: R97, puzzle: Exclusion 3) |  | 0.054 | 0.0203 |  |
| CUUAGACAUGAGGAUCACCCAUGUGAGGAUAUGAUGCGAUCGUCGAAAGACGAUAGCAUCAGAAGGUACAAAUG [Fiskers Ex 1 - 21] (puzzle: Exclusion 1) | 0.0905 |  |  |  |
| AGUUAGAAAGGAUAUACAUGAGGAUCACCCAUGUAGGGCUGUUAGAGACCCGGUCUCUGUAGAAGGUUCGAACU [EX3 C.16] (Eterna round: R97, puzzle: Exclusion 3) |  | 0.0308 | 0.0289 |  |
| GGGAGGGAUGCAGGAUAUGCGAGGGAGGGAGGAGUAGAAGGGCAUGAGGAUCACCCAUGUGACAUGAGGAUCACCCAUGUGGGA [Success - 29% A] (Eterna round: R96, puzzle: Exclusion NG 1) |  | 0.078 | 0.082 | apparent KD of MS2 coat protein [4]: 0.0802 µM |
| AGUGCGUAUGUGAGGAUAUGCUGGUCCUUGGAUCAGCAGAAGGCACAUGAGGAUCACCCAUGUGGUGUCGUACC [salish99_Bmod_Ex4_003] (puzzle: Brourd's mod of Exclusion 4) | 0.18 |  |  |  |
| CGGGCCGGCCUUCCGGCCGGCCCGACAUGAGGAUCACCCAUGUAGGAUAUCCCGGCUGCCGGCCGGGAGAAGGGCGUGCGCUUU [-47.6, -45.1 kcal, 14% A] (Eterna round: R96, puzzle: Exclusion NG 3) |  | 0.0365 | 0.0365 | apparent KD of MS2 coat protein [4]: 0.0208 µM |
| UCGCUCCGUGUAGGAUAUCGCCGUUCCACUCGGCGAGAAGGACAUGAGGAUCACCCAUGUAUGUUAUUAUCACGUGUGGCGCGC [Design 53] (Eterna round: R96, puzzle: Exclusion NG 1) |  | 0.032 | 0.0181 | apparent KD of MS2 coat protein [4]: 0.0165 µM |
| GAGUUAACGUGAGGAAUAUACAUGAGGAUCACCCAUGUUAACAAAUUUAUUGCUCGUCUUAUAACAACAAUUAACUC [Alarm 6 - Jieux - Sensor, turn-off variant 1] (Eterna round: R97, puzzle: Sensor, turn-off variant 1) |  | 0.023 | 0.0277 |  |
| UCCUCGUCAGGAUAUCCACGGAAUAGCGGGAUACCGAGCGUGGAGAAGGGACAUGAGGAUCACCCAUGUAAAAU [Edlare] (puzzle: Exclusion 4) | 0.0249 |  |  |  |
| UUUUUAUAUGAAGGAUAUACUUAACAUGAGGAUCACCCAUGUGGUGUUGUGAGUGAGUGAGUUUAGUAGAAGGUCAAUGAUUUA [JMF's solution 62] (Eterna round: R96, puzzle: Exclusion NG 2) |  | 1.21 | 0.354 | apparent KD of MS2 coat protein [4]: 0.414 µM |

| Sequence | apparent KD of MS2 coat protein [2] [µM] | apparent KD of MS2 coat protein (input ligand: FMN 200 uM) [µM] | apparent KD of MS2 coat protein (input ligand: none) [µM] | other results |
| --- | --- | --- | --- | --- |
| CCCUAGGGAGGAUAUCCAAUAUAUGACAUGAGGAUCACCCAUGUUUCCACUCGUACCUCCGGAGAAGGCCCAUACC [Ex5 #10] (Eterna round: R97, puzzle: Exclusion 5) |  | 0.028 | 0.0284 |  |
| AAGUGACAUGAGGAUCACCCAUGUCAGGAUAUGCGCCGCUUACGCCUAAGUGUAGGGAGCAGAAGGGACAUAGA [EX1 B.2] (Eterna round: R97, puzzle: Exclusion 1) |  | 0.0305 | 0.0257 |  |
| GUUCGGGCAGGAUAUACAUGAGGAUCACCCAUGUGUGUCCAUACGCGUGAGUCUUCGUGUAGAAGGGUUUGGGC [-30.5, -27.8 kcal, 20% A] (Eterna round: R97, puzzle: Exclusion 3) |  | 0.0273 | 0.0211 |  |
| AAACAAGAAGGAUAUACAUUAUCGGAUCUUCCGGCAAUGCCACAUGAGGAUCACCCAUGUAGAAGGUCUAAAUU [Ralabi] (puzzle: Exclusion 2) | 0.0123 |  |  |  |
| AAAUAGCUAGAGGAUAUCGGAUAGGAUUUAUUACGAGAAGGUUAGACAUGAGGAUCACCCAUGUUCUGUUGGGA [EX6 #21] (Eterna round: R97, puzzle: Exclusion 6) |  | 0.0869 | 0.0346 |  |
| UUAAUUAAUUAAUUAUAAGAUCAACAUGAGGAUCACCCAUGUGAGGAUAUCAGCUCGAUUAGAGCUGAGAAGGCACAAAUAAUU [ExNG3/16-B1] (Eterna round: R96, puzzle: Exclusion NG 3) |  | 0.147 | 0.044 | apparent KD of MS2 coat protein [4]: 0.0536 µM |
| CACCUACAUGAGGAUCACCCAUGUCAGGAUAUCUUUGCUAAUAUGAAUAGAUGCGUAAAGAGAAGGGACAUUUC [EX1 C.8] (Eterna round: R97, puzzle: Exclusion 1) |  | 0.027 | 0.0149 |  |
| GUUACACAUGAGGAUCACCCAUGUAAGGAUAUGCUGCGGUCGCGAAAACGUGACUGCAGCAGAAGGUACACAUG [Mat - Mod of JL D61] (puzzle: Exclusion 1) | 0.135 |  |  |  |
| CUUUUGUGAGGAUAUCUGGCUUCGAUCGUGAGAUCGAGGCUAGAGAAGGCACAUGAGGAUCACCCAUGUUCCUU [jl-ex4-4.05 salish99 mod] (Eterna round: R97, puzzle: Exclusion 4) |  | 0.0661 | 0.0199 |  |
| AAGAUACAUGAGGAUCACCCAUGUGAGGAUAUCAGCACGACCGUGAGGUCGAUAAGAAUGAGAAGGCACAAUGG [JL-ex1-4.51] (Eterna round: R97, puzzle: Exclusion 1) |  | 0.103 | 0.279 |  |
| AACCUGGCUGUUCACAGGAACAUGAGGAUCACCCAUGUCGUGGGUAGAUCCCUCCCUGGGAAAUCUGCUCGUCUUAU [Cac Sensor turn off v1 sub13] (Eterna round: R97, puzzle: Sensor, turn-off variant 1) |  | 0.0346 | 0.0342 |  |
| GUAUAACAUGUAGGAUAUGCGUGGCGAAGCUAUGCAGAAGGACAUGAGGAUCACCCAUGUUUUAGCGUCUGCGUACAGAUGCAA [JL ENG1 1.39] (Eterna round: R96, puzzle: Exclusion NG 1) |  | 0.143 | 0.0263 | apparent KD of MS2 coat protein [4]: 0.0201 µM |
| GGCACACAUGAGGAUCACCCAUGUGAGGAUAUGUUAGUUUCGGCCAAAGCCGAAAUUAACAGAAGGCACAUGCC [JR_Exclusion1_Sub021] (puzzle: Exclusion 1) | 0.0133 |  |  |  |
| CGCUGGACAGGAUAUGUUCUUGGGCACUUGAGGAUCACCCAAGUCAUCGGGACAUCAGGCACAGAAGGGUUGUUGG [salish99_ex5_r4_028] (Eterna round: R97, puzzle: Exclusion 5) |  | 0.0255 | 0.0271 |  |
| GUAUAACUACACGGGCUCAACAUGAGGAUCACCCAUGUCAUAUACGCAAGCUUUUUGCUUGUCUUACCUGUCCGUGA [Ariedbi] (puzzle: Sensor v3, turn-off variant 1) | 0.0104 |  |  | apparent KD of MS2 coat protein [1]: 0.0115 µM; apparent KD of MS2 coat protein [3]: 0.0101 µM |
| GAGGUGGGUUUUCAGAGUAACAUGAGGAUCACCCAUGUAGAAGUUGAAGGUAUCAAGCGAAUGGCUCGUCAAAUGUG [JR_SV3TOV1_Sub048] (puzzle: Sensor v3, turn-off variant 1) | 0.171 |  |  | apparent KD of MS2 coat protein [1]: 0.135 µM; apparent KD of MS2 coat protein [3]: 0.233 µM |
| GUCGUGACCAAGGAUAUAGCUAGGGAAGGAAAGUUAGAAGGUGGUACAUGAGGAUCACCCAUGUAGUCCACAAA [Dixeatleve] (puzzle: Exclusion 6) | 0.013 |  |  | apparent KD of MS2 coat protein [1]: 0.0131 µM; apparent KD of MS2 coat protein [3]: 0.0129 µM |
